Earlier results in paper PMC6160412.
Read-outs that look alike come from different tables or passages of the source.

Molecular target: Neurexin-1β (+S4) (Mus musculus) (UniProt P0DI97)
Experiment: SPR

Neurexin-1β (+S4) (Mus musculus), sequence (P0DI97 47-392): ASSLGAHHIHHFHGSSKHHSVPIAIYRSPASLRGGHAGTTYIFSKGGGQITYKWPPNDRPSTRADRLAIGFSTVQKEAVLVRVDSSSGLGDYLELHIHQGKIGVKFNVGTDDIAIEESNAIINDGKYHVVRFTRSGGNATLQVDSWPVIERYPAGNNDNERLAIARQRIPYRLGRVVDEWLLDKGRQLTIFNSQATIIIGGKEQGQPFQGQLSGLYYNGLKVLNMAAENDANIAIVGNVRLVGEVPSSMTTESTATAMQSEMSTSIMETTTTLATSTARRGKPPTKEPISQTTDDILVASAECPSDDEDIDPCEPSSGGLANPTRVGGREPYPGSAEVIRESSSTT
Neuroligin-1, sequence (Q99K10 46-843): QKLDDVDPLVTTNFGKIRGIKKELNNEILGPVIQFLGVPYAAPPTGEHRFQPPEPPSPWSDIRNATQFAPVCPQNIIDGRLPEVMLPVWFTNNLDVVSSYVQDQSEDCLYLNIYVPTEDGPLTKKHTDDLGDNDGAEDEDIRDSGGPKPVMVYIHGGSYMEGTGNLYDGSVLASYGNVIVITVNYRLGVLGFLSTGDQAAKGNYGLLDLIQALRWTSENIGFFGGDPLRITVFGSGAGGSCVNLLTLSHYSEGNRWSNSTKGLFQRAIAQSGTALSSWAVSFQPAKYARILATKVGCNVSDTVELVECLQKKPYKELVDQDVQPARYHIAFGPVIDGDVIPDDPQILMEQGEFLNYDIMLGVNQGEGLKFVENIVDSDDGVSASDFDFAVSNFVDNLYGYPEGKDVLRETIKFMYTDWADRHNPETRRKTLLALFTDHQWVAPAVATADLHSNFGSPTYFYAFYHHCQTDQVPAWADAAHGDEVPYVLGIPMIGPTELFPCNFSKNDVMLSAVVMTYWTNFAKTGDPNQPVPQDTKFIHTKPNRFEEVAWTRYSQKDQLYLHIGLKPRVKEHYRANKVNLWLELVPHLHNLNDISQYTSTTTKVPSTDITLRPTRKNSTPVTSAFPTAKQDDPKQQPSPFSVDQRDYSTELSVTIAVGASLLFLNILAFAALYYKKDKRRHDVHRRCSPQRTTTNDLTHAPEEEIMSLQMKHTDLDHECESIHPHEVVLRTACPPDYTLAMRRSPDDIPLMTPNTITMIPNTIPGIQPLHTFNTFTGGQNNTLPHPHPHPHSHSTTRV

Row | Substance | Kd [nM] | Kd (record 2) [nM]
1 | Neuroligin-1 (from UniProt Q99K10) | 700 | 2600
2 | Neuroligin-4 (from UniProt Q8N0W4) | 2500 | 9700
